Test results: doi:10.1101/2025.11.18.689095 (bioRxiv, 2025)
Where no end group is shown, it is not given here.

B1: human Tom70 (residues 108–608) (domain or fragment)
chain: MNSLDRAQAAKNKGNKYFKAGKYEQAIQCYTEAISLCPTEKNVDLSTFYQNRAAAFEQLQKWKEVAQDCTKAVELNPKYVKALFRRAKAHEKLDNKKECLEDVTAVCILEGFQNQQSMLLADKVLKLLGKEKAKEKYKNREPLMPSPQFIKSYFSSFTDDIISQPMLKGEKSDEDKDKEGEALEVKENSGYLKAKQYMEEENYDKIISECSKEIDAEGKYMAEALLLRATFYLLIGNANAAKPDLDKVISLKEANVKLRANALIKRGSMYMQQQQPLLSTQDFNMAADIDPQNADVYHHRGQLKILLDQVEEAVADFDECIRLRPESALAQAQKCFALYRQAYTGNNSSQIQAAMKGFEEVIKKFPRCAEGYALYAQALTDQQQFGKADEMYDKCIDLEPDNATTYVHKGLLQLQWKQDLDRGLELISKAIEIDNKCDFAYETMGTIEVQRGNMEKAIDMFNKAINLAKSEMEMAHLYSLCDAAHAQTEVAKKYGLKPPTL
notes: human Tom70 (translocase of outer mitochondria membrane 70), residues 108-608; N-terminal Avi tag, His6 tag, (GGS)5 linker and TEV site removed by TEV protease; also called hTom70; free Tom70; source: E. coli BL21 (DE3), purified (Ni-NTA, TEV cleavage, second Ni column, SEC); not shown: Avi, N-terminal, cleaved; His6, N-terminal, cleaved
B2: ^19F-labeled Tom70 (5-fluoro-tryptophan, residues 108–608) (domain or fragment)
chain: B1 chain
modifications: 5-fluoro-tryptophan at W169 and W523
notes: human Tom70, residues 108-608; also called ^19F Tom70; 5F-Trp Tom70; source: E. coli BL21(DE3) in M9 media supplemented with 5-fluoro-tryptophan, purified as unlabeled Tom70; not shown: Avi, N-terminal, cleaved; His6, N-terminal, cleaved
B3: Hsp90_(EEVD) peptide (peptide)
peptide: YDTSRMEEVD-OH
notes: tyrosine added to aid with quantification; C-terminal residues 724-732 of human Hsp90α; 10 residues: an added N-terminal Tyr and nine Hsp90 residues; source: synthetic peptide (LifeTein)

Legend:
Conditions in all cases: both partners purified
[1] = target: T1, biotinylated human Hsp90α (residues 1–732), tags not cleaved (human, UniProt P07900 1-732, biotin (enzymatic protein biotinylation kit)); assay: BLI + ITC; kon estimated indirectly as koff from BLI (immobilised biotinylated Hsp90) divided by KD from ITC (untagged Hsp90)
T1 construct: human Hsp90α, residues 1-732; N-terminal Avi tag, His6 tag, (GGS)5 linker and TEV site remain on the chain; held on streptavidin probes; also called biotinylated Hsp90; surface-immobilized Hsp90; source: E. coli BL21 Star (DE3) pLysS, purified (Ni-INDIGO, HiPrep Q; no TEV cleavage), enzymatically biotinylated; not shown: Avi, N-terminal, kept; His6, N-terminal, kept

[2] = target: T2, human Hsp90α (residues 1–732), full-length (human, UniProt P07900 1-732); assay: ITC; Tom70 (400 μM), Tom70:Orf9b_(Helix) complex (400 μM), Tom70:Orf9b complex (500 μM) or truncation mutant complexes titrated into Hsp90 (20 μM); 20°C; 20 mM sodium phosphate pH 8, 150 mM NaCl, 2 mM TCEP, 10% glycerol; 1:1 binding model
T2 construct: human Hsp90α, residues 1-732; also called full-length Hsp90; heat shock protein 90; source: E. coli BL21 Star (DE3) pLysS, purified (Ni-INDIGO, TEV cleavage, second Ni-INDIGO, HiPrep Q); not shown: Avi, N-terminal, cleaved; His6, N-terminal, cleaved

[3] = target: T2, human Hsp90α (residues 1–732), …; assay: NMR titration
[4] = target: B1; assay: ITC; Hsp90_(EEVD) (400–500 μM) titrated into Tom70 or its complexes (30 μM) in the cell; 20°C; 20 mM sodium phosphate pH 8, 150 mM NaCl, 2 mM TCEP, 10% glycerol; 1:1 binding model

B1 gave a kon [1] of 500000 M⁻¹ s⁻¹ and a Kd [2] of 3 µM.

B2: binds [3].

With B3 the “fold lower affinity than full-length Hsp90 for free Tom70” value [4] was 4 fold.
